Laboratory results taken from US20150267232A1, “IN VIVO AND IN VITRO CARBENE INSERTION AND NITRENE TRANSFER REACTIONS CATALYZED BY HEME ENZYMES” (California Institute of Technology, priority 2012, published 2015).
“And” between values parts separate entries of the source, which are not always exact repeats. Identical values can stand only once.

What was measured:
[1] = P450BM3 compilation plate screen (GC, cyclopropane peaks); assay type: biochemical; conditions: P450BM3 variants
[2] = Whole-cell C—H amination of azide 1; assay type: cell-based, E. coli BL21(DE3); conditions: intact E. coli cells; for Yield sulfonamide (%) / Yield sultam (%): OD600=30, 2 mM azide 1, 24 hours; for Yield sulfonamide (%) / Yield sultam (%) / TTN: anaerobic; for TTN: added glucose; for % ee: (S − R)/(S + R)
Procedure: Reaction conditions were as follows: 2 mM azide 1, 25 mM glucose, E. coli BL21(DE3) cells in M9-N minimal medium (OD600=30), 2.5% DMSO, oxygen depletion system (100 U ml^−1 glucose oxidase, 1400 U ml^−1 catalase) reacted for 24 hours under anaerobic conditions at 298 K. Yields determined by HPLC quantification.
(§1) Whole cell reactions used E. coli BL21(DE3) cells containing P450 or P411 catalysts, which were expressed and prepared as described elsewhere (Coelho, P. S. et al., Highly efficient carbene transfer to olefins catalyzed in vivo. Submitted (2013)). Following expression, cells were resuspended to an OD600 of 30 in M9 salts lacking NH4Cl (M9-N), and then degassed by sparging with argon in a sealed 6 mL crimp vial for at least 0.5 h. Separately, glucose (250 mM dissolved in 1×M9-N, 40 μL, or multiples thereof) was degassed by sparging with argon for at least five minutes. The oxygen quenching mixture was added to sealed 2 mL crimp vials containing stir bars and the headspace of the vials was purged with argon for five minutes at which time glucose, and then cells were added by syringe. Substrate (80 mM arylsulfonyl azide, 10 uL in DMSO) was added via syringe, and the reactions were stirred at room temperature for 24 h under positive argon pressure.
as §1, with “E.” for “Whole cell reactions used E.”, “catalysts” for “catalysts, which”, “Coelho,” for “(Coelho,”, “μL” for “uL”, “pressure. Reactions were quenched in a manner identical to reactions containing purified enzymes as described above. For chiral HPLC, the reactions were extracted and purified in an identical manner as for reactions that employed purified enzymes. Lyophilized intact cells containing sucrose as a cryoprotectant were prepared as described elsewhere (Coelho, P. S. et al., Highly efficient carbene transfer to olefins catalyzed in vivo. Submitted (2013)). The resulting cell powder, containing expressed ABC-CIS (26 mg) were added along with a stir bar to a 2 mL crimp vial and then sealed. The headspace of the vial was degassed, oxygen quenching system (40 μL) was added via syringe, followed by degassed glucose (250 mM, 40 μL), M9-N (310 μL), and finally substrate (80 mM 1, 10 μL). Lyophilized cell reactions were stirred for 24 h at room temperature, then quenched and analyzed as described above. […]” for “pressure.”
The preparative reaction was scaled up proportionally from small-scale reactions. E. coli BL21 cells containing ABC-CIS (OD600 30, 90 mL in M9-N) were sparged with argon for 45 minutes in a round bottom flask (250 mL) containing a stir bar. Separately, glucose solution (250 mM, 11.6 mL) was sparged with argon in a conical flask. The oxygen quenching mixture (10×, 11.6 mL) was degassed in a conical flask that was placed under high vacuum until slight foaming occurred (1-2 s) and then back-filled with argon; this sequence was repeated several times. Sparged glucose solution was then added to the anaerobic cell suspension via syringe, followed by the oxygen quenching system. Finally, substrate 1 (80 mM, 2.9 mL DMSO) was added dropwise via syringe, and the reaction was stirred for 24 h at room temperature. To quench the reaction, dilute HCl (3 M, 8.7 mL) and acetonitrile (125 mL) were added. […]

| Molecule | ee (cis) ([1]; (R,S)-(S,R), chiral β-CDX GC) | de ([1]; diastereomeric excess = ([cis] − [trans])/([cis] + [trans])) | Absolute activity ([1]; sum of the area of the cyclopropane peaks over the area of the internal standard) | Yield sulfonamide (%) [2] | Yield sultam (%) [2] | TTN [2] | % ee [2] |
| --- | --- | --- | --- | --- | --- | --- | --- |
| P450BM3: wild-type cytochrome P450BM3 from Bacillus megaterium (SEQ ID NO: 1) (protein, listed as Bacillus megaterium, cytochrome P450NADPH-P-450 reductase precursor, cytochrome P450 (BM3), CYP102A1) TIKEMPQPKTFGELKNLPLLNTDKPVQALMKIADELGEIFKFEAPGRVTRYLSSQRLIKEACDESRFDKNLSQALKFVRDFAGDGLFTSWTHEKNWKKAHNILLPSFSQQAMKGYHAMMVDIAVQLVQKWERLNADEHIEVPEDMTRLTLDTIGLCGFNYRFNSFYRDQPHPFITSMVRALDEAMNKLQRANPDDPAYDENKRQFQEDIKVMNDLVDKIIADRKASGEQSDDLLTHMLNGKDPETGEPLDDENIRYQIITFLIAGHETTSGLLSFALYFLVKNPHVLQKAAEEAARVLVDPVPSYKQVKQLKYVGMVLNEALRLWPTAPAFSLYAKEDTVLGGEYPLEKGDELMVLIPQLHRDKTIWGDDVEEFRPERFENPSAIPQHAFKPFGNGQRACIGQQFALHEATLVLGMMLKHFDFEDHTNYELDIKETLTLKPEGFVVKAKSKKIPLGGIPSPSTEQSAKKVRKKAENAHNTPLLVLYGSNMGTAEGTARDLADIAMSKGFAPQVATLDSHAGNLPREGAVLIVTASYNGHPPDNAKQFVDWLDQASADEVKGVRYSVFGCGDKNWATTYQKVPAFIDETLAAKGAENIADRGEADASDDFEGTYEEWREHMWSDVAAYFNLDIENSEDNKSTLSLQFVDSAADMPLAKMHGAFSTNVVASKELQQPGSARSTRHLEIELPKEASYQEGDHLGVIPRNYEGIVNRVTARFGLDASQQIRLEAEEEKLAHLPLAKTVSVEELLQYVELQDPVTRTQLRAMAAKTVCPPHKVELEALLEKQAYKEQVLAKRLTMLELLEKYPACEMKFSEFIALLPSIRPRYYSISSSPRVDEKQASITVSVVSGEAWSGYGEYKGIASNYLAELQEGDTITCFISTPQSEFTLPKDPETPLIMVGPGTGVAPFRGFVQARKQLKEQGQSLGEAHLYFGCRSPHEDYLYQEELENAQSEGIITLHTAFSRMPNQPKTYVQHVMEQDGKKLIELLDQGAHFYICGDGSQMAPAVEATLMKSYADVHQVSEADARLWLQQLEEKGRYAKDVWAG | 7 | −81 | 0.00224 | 33% | 0.5% | 5.1 | – |
| ABC-T268A: P450BM3 variant: T268A, C400S (protein, listed as Bacillus megaterium, cytochrome P450NADPH-P-450 reductase precursor, cytochrome P450 (BM3), CYP102A1, P450BM3 variant: T268A, C400S) TIKEMPQPKTFGELKNLPLLNTDKPVQALMKIADELGEIFKFEAPGRVTRYLSSQRLIKEACDESRFDKNLSQALKFVRDFAGDGLFTSWTHEKNWKKAHNILLPSFSQQAMKGYHAMMVDIAVQLVQKWERLNADEHIEVPEDMTRLTLDTIGLCGFNYRFNSFYRDQPHPFITSMVRALDEAMNKLQRANPDDPAYDENKRQFQEDIKVMNDLVDKIIADRKASGEQSDDLLTHMLNGKDPETGEPLDDENIRYQIITFLIAGHEATSGLLSFALYFLVKNPHVLQKAAEEAARVLVDPVPSYKQVKQLKYVGMVLNEALRLWPTAPAFSLYAKEDTVLGGEYPLEKGDELMVLIPQLHRDKTIWGDDVEEFRPERFENPSAIPQHAFKPFGNGQRASIGQQFALHEATLVLGMMLKHFDFEDHTNYELDIKETLTLKPEGFVVKAKSKKIPLGGIPSPSTEQSAKKVRKKAENAHNTPLLVLYGSNMGTAEGTARDLADIAMSKGFAPQVATLDSHAGNLPREGAVLIVTASYNGHPPDNAKQFVDWLDQASADEVKGVRYSVFGCGDKNWATTYQKVPAFIDETLAAKGAENIADRGEADASDDFEGTYEEWREHMWSDVAAYFNLDIENSEDNKSTLSLQFVDSAADMPLAKMHGAFSTNVVASKELQQPGSARSTRHLEIELPKEASYQEGDHLGVIPRNYEGIVNRVTARFGLDASQQIRLEAEEEKLAHLPLAKTVSVEELLQYVELQDPVTRTQLRAMAAKTVCPPHKVELEALLEKQAYKEQVLAKRLTMLELLEKYPACEMKFSEFIALLPSIRPRYYSISSSPRVDEKQASITVSVVSGEAWSGYGEYKGIASNYLAELQEGDTITCFISTPQSEFTLPKDPETPLIMVGPGTGVAPFRGFVQARKQLKEQGQSLGEAHLYFGCRSPHEDYLYQEELENAQSEGIITLHTAFSRMPNQPKTYVQHVMEQDGKKLIELLDQGAHFYICGDGSQMAPAVEATLMKSYADVHQVSEADARLWLQQLEEKGRYAKDVWAG | – | – | – | 45% | 30% | 245 and 250 | 89% |
| BM3-T268A: P450BM3 variant: T268A (protein, listed as Bacillus megaterium, cytochrome P450NADPH-P-450 reductase precursor, cytochrome P450 (BM3), CYP102A1) TIKEMPQPKTFGELKNLPLLNTDKPVQALMKIADELGEIFKFEAPGRVTRYLSSQRLIKEACDESRFDKNLSQALKFVRDFAGDGLFTSWTHEKNWKKAHNILLPSFSQQAMKGYHAMMVDIAVQLVQKWERLNADEHIEVPEDMTRLTLDTIGLCGFNYRFNSFYRDQPHPFITSMVRALDEAMNKLQRANPDDPAYDENKRQFQEDIKVMNDLVDKIIADRKASGEQSDDLLTHMLNGKDPETGEPLDDENIRYQIITFLIAGHEATSGLLSFALYFLVKNPHVLQKAAEEAARVLVDPVPSYKQVKQLKYVGMVLNEALRLWPTAPAFSLYAKEDTVLGGEYPLEKGDELMVLIPQLHRDKTIWGDDVEEFRPERFENPSAIPQHAFKPFGNGQRACIGQQFALHEATLVLGMMLKHFDFEDHTNYELDIKETLTLKPEGFVVKAKSKKIPLGGIPSPSTEQSAKKVRKKAENAHNTPLLVLYGSNMGTAEGTARDLADIAMSKGFAPQVATLDSHAGNLPREGAVLIVTASYNGHPPDNAKQFVDWLDQASADEVKGVRYSVFGCGDKNWATTYQKVPAFIDETLAAKGAENIADRGEADASDDFEGTYEEWREHMWSDVAAYFNLDIENSEDNKSTLSLQFVDSAADMPLAKMHGAFSTNVVASKELQQPGSARSTRHLEIELPKEASYQEGDHLGVIPRNYEGIVNRVTARFGLDASQQIRLEAEEEKLAHLPLAKTVSVEELLQYVELQDPVTRTQLRAMAAKTVCPPHKVELEALLEKQAYKEQVLAKRLTMLELLEKYPACEMKFSEFIALLPSIRPRYYSISSSPRVDEKQASITVSVVSGEAWSGYGEYKGIASNYLAELQEGDTITCFISTPQSEFTLPKDPETPLIMVGPGTGVAPFRGFVQARKQLKEQGQSLGEAHLYFGCRSPHEDYLYQEELENAQSEGIITLHTAFSRMPNQPKTYVQHVMEQDGKKLIELLDQGAHFYICGDGSQMAPAVEATLMKSYADVHQVSEADARLWLQQLEEKGRYAKDVWAG | – | – | – | 51% | 7.8% | 26 | 84% |
